Measured values: patent publication US20170101472A1 (Regeneron, published 2017)

T1: recombinant human LAG3 expressed with a C-terminal mouse IgG2a mFc tag (human)
T1 construct: Called dimeric; also called hLAG3-mFc; hLAG3 dimer
T1 chain: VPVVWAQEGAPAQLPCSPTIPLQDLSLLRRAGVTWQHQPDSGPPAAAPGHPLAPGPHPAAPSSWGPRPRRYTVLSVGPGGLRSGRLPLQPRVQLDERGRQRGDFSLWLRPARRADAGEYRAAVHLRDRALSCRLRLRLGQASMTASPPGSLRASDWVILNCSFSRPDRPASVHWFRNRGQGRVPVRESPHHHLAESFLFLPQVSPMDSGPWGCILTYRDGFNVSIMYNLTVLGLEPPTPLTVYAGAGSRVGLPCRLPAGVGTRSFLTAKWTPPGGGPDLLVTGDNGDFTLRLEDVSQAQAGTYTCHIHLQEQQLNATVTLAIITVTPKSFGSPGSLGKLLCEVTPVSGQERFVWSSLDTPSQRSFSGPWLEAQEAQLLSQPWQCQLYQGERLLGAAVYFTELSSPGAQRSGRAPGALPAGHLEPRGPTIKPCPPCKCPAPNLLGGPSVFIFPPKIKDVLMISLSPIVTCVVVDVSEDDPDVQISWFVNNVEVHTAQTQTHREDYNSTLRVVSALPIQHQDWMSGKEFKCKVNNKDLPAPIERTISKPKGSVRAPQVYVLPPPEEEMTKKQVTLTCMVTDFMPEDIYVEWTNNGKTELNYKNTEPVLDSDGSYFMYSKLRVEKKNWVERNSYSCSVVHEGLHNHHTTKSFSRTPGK

T2: human LAG3 expressed on HEK293 cells (human, UniProt P18627 23-525)
T2 construct: also called hLAG3; HEK293/hLAG3
T2 sequence: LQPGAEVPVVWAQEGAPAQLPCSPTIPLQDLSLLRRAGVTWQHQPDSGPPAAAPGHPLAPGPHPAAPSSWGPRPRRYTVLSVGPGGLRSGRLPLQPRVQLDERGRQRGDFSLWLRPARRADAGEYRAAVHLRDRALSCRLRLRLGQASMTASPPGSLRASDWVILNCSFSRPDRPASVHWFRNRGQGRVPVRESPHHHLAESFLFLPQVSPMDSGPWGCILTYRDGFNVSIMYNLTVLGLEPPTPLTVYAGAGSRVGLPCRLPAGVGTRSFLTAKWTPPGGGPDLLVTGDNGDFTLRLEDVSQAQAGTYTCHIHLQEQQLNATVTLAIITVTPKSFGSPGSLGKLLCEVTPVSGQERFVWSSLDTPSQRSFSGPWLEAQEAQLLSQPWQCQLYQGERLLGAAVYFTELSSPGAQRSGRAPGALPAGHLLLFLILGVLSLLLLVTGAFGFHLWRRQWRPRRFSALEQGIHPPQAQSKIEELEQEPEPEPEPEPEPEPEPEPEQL

B1: H4sH15462P (antibody, V domains shown)
VH: QVQLVQSGAEVKKPGASVKVSCKASGYTFTNYYIHWVRQAPGQGLDWMGIINPGGGNTNYAQKFLGRVTMTRDTSTTTVYMELSSLRSEDTAIYYCARENWNSYFDNWGQGTLVTVSS
VL: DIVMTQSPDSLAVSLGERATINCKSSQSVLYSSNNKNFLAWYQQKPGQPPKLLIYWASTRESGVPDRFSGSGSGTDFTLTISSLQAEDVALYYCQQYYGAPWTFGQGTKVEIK
notes: H4sH = human IgG4 Fc with 2 or more amino acid changes as disclosed in US20140243504
B2: H4H17828P2 (antibody, human IgG4, V domains shown)
VH: EVQLVESGGGLVQPGGSLRLSCAASGFTFKTYAMSWVRQAPGRGLEWVSGISGSGSTSYYADSVKGRFTISRDNYKKTLSLQMNSLRAEDTAVYYCALDIMATVGGLFNNWGQGTLVTVSS
VL: not shown
notes: H4H = human IgG4 Fc with S108P hinge mutation
B3: H4H15462P (antibody, human IgG4, V domains shown)
VH: B1 VH
VL: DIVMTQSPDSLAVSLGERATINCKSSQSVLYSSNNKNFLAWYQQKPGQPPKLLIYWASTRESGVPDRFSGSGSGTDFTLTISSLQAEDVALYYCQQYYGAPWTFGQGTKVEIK
notes: as for B2
B4: H4sH15479P (antibody, V domains shown)
VH: QVQLQQWGAGLLNPSETLSLTCAVYGGAFSDYYWNWIRQPPGKGLEWIGEINHRGSTNYNPSLKSRVTISVDTSKNQFSLRMSSVTAADAAVYYCARGEDYDIWNGYYQEKWGQGTLVTVSS
VL: EIVLTQSPATLSLSPGERATLSCRASQSISTYLAWYQQKPGQAPRLLIYDASKRATGIPARFSGSGSGTDFTLTISSLEPEDFVVYYCHQRSNWPLTFGGGTKVEIK

Target: T3, recombinant human LAG3 expressed with a C-terminal myc-myc-hexahistidine tag (human, UniProt P18627 29-450)
T3 construct: also called hLAG3-mmh; hLAG3.mmh
Experiment: SPR, mAb captured, 37 C
Method: (§1) The BiaCore sensor surface was derivatized with either a polyclonal rabbit anti-mouse antibody (GE, # BR-1008-38) or with a monoclonal mouse anti-human Fc antibody (GE, # BR-1008-39) to capture approximately 50-85 RUs of anti-LAG3 monoclonal antibodies, expressed with either a mouse Fc or a human Fc, respectively. […] The binding of the LAG3 reagents to captured monoclonal antibodies was monitored for 4 minutes while their dissociation from the antibodies was monitored for 8 minutes in HBST running buffer (0.01 M HEPES pH 7.4, 0.15 M NaCl, 3 mM EDTA, 0.05% v/v Surfactant P20). Experiments were performed at 25° C. and 37° C. Kinetic association (kₐ) and dissociation (kd) rate constants were determined by processing and fitting the data to a 1:1 binding model using Scrubber 2.0c curve fitting software. Binding dissociation equilibrium constants (KD) and dissociative half-lives (t_{1/2}) were then calculated from the kinetic rate constants as: KD (M)=kd/kₐ and t_{1/2} (min)=[ln2/(60*kd)].

Q: B1 was tested. Which Kd did it give?
A: The Kd was 7.66 nM.

Q: And the koff?
A: The koff was 0.00772 s⁻¹.

Q: And the kon?
A: Its kon is 1.01e+06 M⁻¹ s⁻¹.

Q: And the t1/2?
A: Its t1/2 is 1.5 min.

Q: How did the Kd turn out when B2 was run?
A: Its Kd is 1.89 nM.

Q: What about the koff of the same binder?
A: The koff was 0.00207 s⁻¹.

Q: And the kon?
A: Its kon is 1.1e+06 M⁻¹ s⁻¹.

Q: What about the t1/2 of the same binder?
A: Its t1/2 is 5.6 min.

Q: With B3 as the binder, how does the Kd read?
A: Its Kd is 5.8 nM.

Q: And the koff?
A: Its koff is 0.00626 s⁻¹.

Q: And the kon?
A: Its kon is 1.08e+06 M⁻¹ s⁻¹.

Q: And the t1/2?
A: Its t1/2 is 1.8 min.

Q: For B4, which Kd is on record?
A: Its Kd is 0.0341 nM.

Q: And the koff?
A: Its koff is 4.24e-05 s⁻¹.

Q: What about the kon of the same binder?
A: The kon was 1.24e+06 M⁻¹ s⁻¹.

Q: And the t1/2?
A: The t1/2 was 272 min.

Target: T1, recombinant human LAG3 expressed with a …
Experiment: SPR, mAb captured, 37 C
Method: as §1

Q: With B1 as the binder, how does the Kd read?
A: The Kd was 0.876 nM.

Q: And the koff?
A: Its koff is 0.00157 s⁻¹.

Q: What about the kon of the same binder?
A: Its kon is 1.8e+06 M⁻¹ s⁻¹.

Q: What about the t1/2 of the same binder?
A: The t1/2 was 7.3 min.

Q: For B2, which Kd is on record?
A: The Kd was 0.415 nM.

Q: What about the koff of the same binder?
A: Its koff is 0.000718 s⁻¹.

Q: And the kon?
A: The kon was 1.73e+06 M⁻¹ s⁻¹.

Q: And the t1/2?
A: Its t1/2 is 16.1 min.

Q: For B3, which Kd is on record?
A: Its Kd is 0.415 nM.

Q: And the koff?
A: Its koff is 0.000895 s⁻¹.

Q: What about the kon of the same binder?
A: Its kon is 2.16e+06 M⁻¹ s⁻¹.

Q: And the t1/2?
A: Its t1/2 is 12.9 min.

Q: B4 was tested. Which Kd did it give?
A: Its Kd is 0.00342 nM.

Q: And the koff?
A: The koff was 1e-05 s⁻¹.

Q: And the kon?
A: The kon was 2.92e+06 M⁻¹ s⁻¹.

Q: What about the t1/2 of the same binder?
A: The t1/2 was at least 1160 min.

Target: T2, human LAG3 expressed on HEK293 cells
Experiment: cell adherence assay, blocks A20 (mouse MHCII) cells on HEK293-hLAG3
Method: Cells were plated into sterile Nunclon™ Delta 96-Well MicroWell™ Black Optical Bottom Plates (Thermo Scientific). The wells from the perimeter of the plate were not included in the assay design to avoid edge effects.
On the day of treatment, all antibodies were serially (1:3) diluted in RPMI media (without FBS or supplements added). The 9-point dilution ranged between 45 pM to 300 nM, with the last dilution point containing no mAb. […] While the plated HEK293-LAG3 cells were incubating with the test or control antibodies, non-adherent B-cells (RAJI or A20) were labeled with Calcein AM using the following procedure. RAJI and A20 suspension cells were harvested and centrifuged at 1,200 rpm for 5 minutes. Cell pellets were resuspended in 1×PBS and counted. Cells were washed with RPMI, and resuspended in RPMI at a concentration of 10⁶ cells per 1 ml. Cells were labeled by adding 5 μL of Calcein AM per 1 ml of cell suspension and incubated for 30 min at 37° C., at 5% CO₂. […] Subsequently, 10 μL of BD Pharmingen Fc Block (0.5 mg/mL) was added per 1 ml of the Calcein AM labeled cells, which were incubated at RT for 10 minutes. The Calcein AM-stained, Fc-blocked RAJI or A20 cells were resuspended in RPMI to a final concentration of 3×10⁶ cells per 1 ml and subsequently used in the adherence assay.
The labeled suspension cells were incubated with the HEK293 monolayer for 1 hour at 37° C., at 5% CO₂.

Q: Which IC50 does the source give for B1 here?
A: Its IC50 is 3.6 nM.

Q: How did the IC50 turn out when B2 was run?
A: Its IC50 is 16 nM.

Q: Which IC50 does the source give for B3 here?
A: Its IC50 is 7.1 nM.

Q: Which IC50 does the source give for B4 here?
A: The IC50 was 6.3 nM.
